Target: T1, Csa3b (Sulfolobus islandicus REY15A) (UniProt F0NH47)
T1 sequence: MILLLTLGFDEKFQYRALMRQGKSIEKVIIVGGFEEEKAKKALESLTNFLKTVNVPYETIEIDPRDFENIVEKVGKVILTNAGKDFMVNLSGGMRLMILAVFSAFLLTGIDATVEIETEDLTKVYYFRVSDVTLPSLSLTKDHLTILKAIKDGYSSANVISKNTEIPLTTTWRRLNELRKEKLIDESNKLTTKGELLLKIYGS
Test: LSPR
Settings: DNA immobilized, LSPR (OpenSPR, COOH chip, 20 uL/min, 5 min, 1:1 fit; running buffer not stated), DNase I footprinting: 400 ng probe in 40 uL, 30 min at 30 C, DNase I 1 min at …

Substance | Kd | Kd (20 uM 5'-CAAAA-3') | Kd (no CAAAA)
cmr4 (cmr4-alpha) promoter (LSPR) | 17.2 nM |  | 
csa1 promoter, full-length (LSPR) |  | 300 nM | 4240 nM
